Results published in publication doi:10.1101/2024.10.10.617581.

Target: Ib, membrane-binding component of the Iota toxin from Clostridium perfringens (N-terminal cleaved, active) (Clostridium perfringens)
Assay: cryo-EM structure

**Q.** How did the stoichiometry N turn out when “Ib, membrane-binding component of the Iota toxin from Clostridium perfringens (N-terminal cleaved, active) (natural protein)” was run?
**A.** 7
